# Source: US20180022797A1 (published 2018)
# Ends that are not written are not given here.
# T1: peptide 13 (TSESGELHGLTTE) (human, also: biotinylated, site not given here)
# T1 construct: on the D-strand
# T1 peptide: TSESGELHGLTTE
# Biological target: T1, peptide 13 (TSESGELHGLTTE)
# Assay: ELISA: antibody titrated on NeutrAvidin-captured biotinylated peptide, non-linear regression
# Experimental: ELISA assay was then utilized to identify the corresponding epitope(s) for each antibody. 5 μg/mL of NeutrAvidin (Pierce, USA) in 50 mM pH 9.6 sodium carbonate/bicarbonate buffer was used to coat 96-well Corning high-binding EIA/RIA plates. The plates were washed three times with TBST buffer and blocked with Superblock (Pierce, USA). Fifty to one hundred microliters of the biotinylated peptides were diluted with PBS to […] and added to each well and incubated at room temperature for one hour. […] After one hour room temperature incubation and washing steps, HRP-conjugated secondary antibody was applied. Goat-anti-mouse IgG or Fc HRP conjugates were used in the case of mouse monoclonal antibodies while goat-anti-rabbit IgG HRP conjugate antibody was used for rabbit polyclonal detection. TMB was used as the HRP substrate for the detections.
binder,measurement,value
"MFD108 (antibody, V domains shown, Mouse monoclonal IgG1, kappa light chain; also called mouse monoclonal antibody MFD108; hybridoma ATCC PTA-120816) VH: EVQLVESGGDLVKPGGSLKLSCAASGFTFSNYGMSWVRQTPDKRLEWVATITSGGSYTYYPDSVKGRFTISRDNAKNTLYLQMSSLKSEDTAMYYCARDGTAWFAYWGQGTLVTVSA VL: DIQMTQTTSSLSASLGDRVTISCRASQDISNYLNWYQQKPDGTVKLLIYYTSRLHSGVPSRFSGSGSGTDYSLTISNLEEEDIATYFCQQGNTLRTFGGGTKLEIK",Kd,0.25 nM
